Laboratory results published in PMC4933460, “Extracellular Regulation of Bone Morphogenetic Protein Activity by the Microfibril Component Fibrillin-1*” (The Journal of Biological Chemistry, 2016).

B4: BMP-7 prodomain, full-length PD (residues 30-292), E. coli (domain or fragment)
chain: not shown
notes: also called full-length BMP-7 PD; source: E. coli, purified by chelating chromatography; not shown: His6, C-terminal, kept

Assays:
[1] = target: T1, rF87, N-terminal fragment of fibrillin-1 (Ser19-Ile329) (UniProt P35555 19-329); test: SPR; PD variants immobilised at 500-800 RU, rF87 injected at 0-80 nM in HBS-EP (no urea); apparent KD; conditions: both partners purified
T1 construct: The sentence of the methods may also give rF87 the tandem C-terminal Strep-tag; it cannot be told; also called fibrillin-1 (rF87); N-terminal end of fibrillin-1
T1 sequence (P35555 19-329): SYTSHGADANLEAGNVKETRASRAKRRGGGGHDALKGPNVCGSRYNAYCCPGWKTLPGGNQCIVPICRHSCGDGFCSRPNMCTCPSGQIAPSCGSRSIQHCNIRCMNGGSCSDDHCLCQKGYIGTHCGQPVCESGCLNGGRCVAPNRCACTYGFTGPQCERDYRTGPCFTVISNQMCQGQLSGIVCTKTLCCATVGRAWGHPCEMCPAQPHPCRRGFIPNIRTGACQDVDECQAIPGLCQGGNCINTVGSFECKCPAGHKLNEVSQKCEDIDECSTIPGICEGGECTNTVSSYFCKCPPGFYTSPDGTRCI

[2] = target: B4; test: SPR; PD/PD interaction: 500-800 RU of full-length PD (30-292) or truncated variants (48-292, 55-292) immobilised, 0-320 nM PD variants injected in HBS-EP with 1 M urea; apparent KD; conditions: both partners purified
[3] = target: the molecule itself; test: as above
[4] = target: the molecule itself; test: velocity sedimentation in sucrose gradients; 10 μg BMP-7 complex dialysed against TBS with 1 M urea, 5-20% sucrose gradient, 28 fractions, Western blots for PD and GF
[5] = target: B4; test: SPR; 1,000 RU of BMP-7 PD immobilised, 0-80 nM GF injected in sodium acetate buffer pH 4.5, 0.15 M NaCl, 3 mM EDTA, 0.005% P20; apparent KD; conditions: both partners purified
BMP-7 PD (30-292) H66A = target: T2, BMP-7 PD (30-292) H66A (UniProt P18075 30-292, H66A); test: ELISA; sandwich ELISA of reconstitution in solution: PD variants dialysed with the GF in TBS with 1 M urea overnight, captured by coated monoclonal anti-His6 antibody (C-terminal His6 of the PD), GF detected with an anti-GF antibody; conditions: both partners purified
T2 construct: source: E. coli, purified by chelating chromatography; not shown: His6, C-terminal, kept

BMP-7 PD (30-292) R67A = target: T3, BMP-7 PD (30-292) R67A (UniProt P18075 30-292, R67A); test: as above; conditions: both partners purified
T3 construct: source: E. coli, purified by chelating chromatography; not shown: His6, C-terminal, kept

BMP-7 PD (30-292) P68A = target: T4, BMP-7 PD (30-292) P68A (UniProt P18075 30-292, P68A); test: as above; conditions: both partners purified
T4 construct: source: E. coli, purified by chelating chromatography; not shown: His6, C-terminal, kept

[6] = target: B4; test: SPR; E. coli-derived full-length PD (30-292) immobilised, GF flown over in HBS-EP with 1 M urea; apparent KD = kd/ka; conditions: both partners purified
[7] = target: B4; test: SPR; BIAcore 2000; BMP-7 GF covalently coupled to a CM5 chip (500 RU), PD variants flown over in HBS-EP pH 7.4 with 1 M urea; 1:1 model with mass transfer; apparent KD = kd/ka; conditions: both partners purified
[8] = target: T5, BMP-7 PD truncation variant 55-292 (UniProt P18075 55-292); test: as above; conditions: both partners purified
T5 construct: source: E. coli, purified by chelating chromatography

[9] = target: T6, BMP-7 PD truncation variant 65-292 (UniProt P18075 65-292); test: as above; conditions: both partners purified
T6 construct: source: E. coli, purified by chelating chromatography

[10] = target: T7, BMP-7 PD truncation variant 48-292 (UniProt P18075 48-292); test: as above; conditions: both partners purified
T7 construct: source: E. coli, purified by chelating chromatography; not shown: His6, C-terminal, kept

B1: BMP-7 PD truncation variant 74-292 (domain or fragment)
chain: not shown
notes: source: E. coli, purified by chelating chromatography
Kd [1]: 26 ± 4 nM

B2: BMP-7 PD variant 218-292 (domain or fragment, UniProt P18075 218-292, looked up)
chain: ASEEGWLVFDITATSNHWVVNPRHNLGLQLSVETLDGQSINPKLAGLIGRHGPQNKQPFMVAFFKATEVHFRSIR
notes: also called Ala218-Arg292; source: E. coli, purified by chelating chromatography
Kd [2]: 26.8 ± 3.1 nM

B3: BMP-7 PD variant 241-292 (domain or fragment, UniProt P18075 241-292, looked up)
chain: HNLGLQLSVETLDGQSINPKLAGLIGRHGPQNKQPFMVAFFKATEVHFRSIR
notes: as for B1
Kd [2]: 39.1 ± 3.3 nM

B4
Kd [3]: 3 ± 0.01 nM
Kd [1]: 32 ± 7 nM

B5: BMP-7 prodomain of the HEK293 EBNA cell-expressed BMP-7 complex (domain or fragment)
chain: not shown
notes: Glycosylated (carbohydrate chains absent in the E. coli preparation); also called PD; BMP-7 PD; source: stably transfected HEK293 EBNA cells, purified as part of the BMP-7 complex (chelating chromatography, gel filtration)
stoichiometry N [4]: 2

B6: BMP-7 growth factor (GF) dimer (ligand, UniProt P18075 293-431, looked up)
chain: STGSKQRSQNRSKTPKNQEALRMANVAENSSSDQRQACKKHELYVSFRDLGWQDWIIAPEGYAAYYCEGECAFPLNSYMNATNHAIVQTLVHFINPETVPKPCCAPTQLNAISVLYFDDSSNVILKKYRNMVVRACGCH
notes: The same GF is a component of the BMP-7 complex m23; also called BMP-7 GF; mature growth factor; source: stably transfected HEK293 EBNA cells; separated from the purified BMP-7 complex in 8 M urea, 1 M NaCl by chelating chromatography (flow-through)
Kd [5]: 20 ± 0.1 nM
percent inhibition of complex formation (BMP-7 PD (30-292) H66A): 30%
percent inhibition of complex formation (BMP-7 PD (30-292) R67A): ~65%
percent inhibition of complex formation (BMP-7 PD (30-292) P68A): ~65%
Kd [6]: 31.5 ± 0.2 nM
Kd [7]: 19.4 nM
Kd [8]: 15 ± 3 nM
Kd [9]: 8 ± 1 nM
Kd [10]: 19 ± 1 nM

B7: BMP-7 PD variant 30-184 (domain or fragment)
chain: not shown
notes: BMP-7 prodomain, residues 30-184 of the BMP-7 precursor; source: E. coli, purified by chelating chromatography
Kd [1]: 38 ± 3 nM

B8: BMP-7 PD variant 30-217 (domain or fragment)
chain: not shown
notes: BMP-7 prodomain, residues 30-217 of the BMP-7 precursor; source: E. coli, purified by chelating chromatography
Kd [1]: 27 ± 6 nM
